Here are results for 8 molecules from publication PMC10224958, “Cryo-EM structure of the Saccharomyces cerevisiae Rpd3L histone deacetylase complex” (Nature Communications, 2023).

First the molecules themselves.
B1: Dep1 (natural protein, S. cerevisiae, UniProt P31385 1-405, looked up)
chain: MSQQTPQESEQTTAKEQDLDQESVLSNIDFNTDLNHNLNLSEYCISSDAGTEKMDSDEEKSLANLPELKYAPKLSSLVKQETLTESLKRPHEDEKEAIDEAKKMKVPGENEDESKEEEKSQELEEAIDSKEKSTDARDEQGDEGDNEEENNEEDNENENEHTAPPALVMPSPIEMEEQRMTALKEITDIEYKFAQLRQKLYDNQLVRLQTELQMCLEGSHPELQVYYSKIAAIRDYKLHRAYQRQKYELSCINTETIATRTFIHQDFHKKVTDLRARLLNRTTQTWYDINKERRDMDIVIPDVNYHVPIKLDNKTLSCITGYASAAQLCYPGEPVAEDLACESIEYRYRANPVDKLEVIVDRMRLNNEISDLEGLRKYFHSFPGAPELNPLRDSEINDDFHQWAQ
notes: Dep1, subunit of the S. cerevisiae Rpd3L complex; endogenous subunit
B2: Rxt2 with a TAP tag at the C-terminus (natural protein, S. cerevisiae)
chain: MTIRSSMKNNAELESKSVLANESNIISTFTRRIIKEKSGNYQVLKRSLDGKLIYPEATGISSNRGNKLLQRSEVVTRRDLNNSKPMIEQTVFYNGSEHRLLQTNIVTDSRRKRIKFTPDINVEPVLVGDENDIDGSEKEDENITDEYYGEEDDDDLSKLVNVKEILTPILSLGDIINHKTISRTFSSPILKNLALQIILMIEKEQMSVVRYSQFLEVFLGDHPEPIYESNLNLPSYNHNLTLPEDRGASDEDDINNKNNINEVNSNSLSTEAGHINNGMEEFGEEDPFFALPRLEQSNALLSLLPSSSGSASISTLTAAEQQQLNEEIESARQLSQIALQRNKEFIRNLQKIRKSVIKANRIRGRILNWSREYLGISDDDITIPVALRVVKRGLISATTNKTTNFEEEIENTMEDGVVDDNEPDEEANRA
notes: Rxt2, subunit of the S. cerevisiae Rpd3L complex; expressed from the tagged strain; not shown: TAP tag, C-terminal, kept
B3: Sap30 (natural protein, S. cerevisiae, UniProt P38429 1-201, looked up)
chain: MARPVNTNAETESRGRPTQGGGYASNNNGSCNNNNGSNNNNNNNNNNNNNSNNSNNNNGPTSSGRTNGKQRLTAAQQQYIKNLIETHITDNHPDLRPKSHPMDFEEYTDAFLRRYKDHFQLDVPDNLTLQGYLLGSKLGAKTYSYKRNTQGQHDKRIHKRDLANVVRRHFDEHSIKETDCIPQFIYKVKNQKKKFKMEFRG
notes: Sap30, subunit of the S. cerevisiae Rpd3L complex; endogenous subunit
B4: His6-tagged human ARID4A R2 domain (residues 1164-1230) (domain or fragment, UniProt P29374 1164-1230, looked up)
chain: SPRTYKWSFQLNELDNMNSTERISFLQEKLQEIRKYYMSLKSEVATIDRRRKRLKKKDREVSHAGAS
notes: ARID4A, human, R2 domain, residues 1164-1230; Construct in the pMCSG7 vector; source: E. coli, expressed separately, purified (Ni-NTA, SEC)
B5: Rxt3 (natural protein, S. cerevisiae, UniProt Q07458 1-294, looked up)
chain: MSVSEQDPNRAYRETQSQIYKLQETLLNSARTKNKQEEGQESNTHSFPEQYMHYQNGRNSAYDLPNVSSQSVLAFTEKHYPNKLKNLGTLYYNRFKEGSFDEDSTSYSDRHSFPYNLYDNTLPPPFLPAIGIQNINNIATLKITYEDIQASFNNIESPRKRNNEIWGCDIYSDDSDPILVLRHCGFKIGAPSGGSFHKLRRTPVNVTNQDNVTGNLPLLEGTPFDLEVELLFLPTLQKYPSVKRFDITSREWGSEATVIHDGLSYGIYSIVIKQRLDRDKPHEPNGYIKNLKWT
notes: Rxt3, subunit of the S. cerevisiae Rpd3L complex; endogenous subunit
B6: Pho23 (natural protein, S. cerevisiae, UniProt P50947 1-330, looked up)
chain: MSSPANLFPGLNDITDVLEEFPLATSRYLTLLHEIDAKCVHSMPNLNERIDKFLKKDFNKDHQTQVRLLNNINKIYEELMPSLEEKMHVSSIMLDNLDRLTSRLELAYEVAIKNTEIPRGLRLGVDNHPAMHLHHELMEKIESKSNSKSSQALKSESRREAMAANRRQGEHYSASTHQQDDSKNDANYGGSRHESQDHTGNNTNSRKRANAANTNNADPETKKRKRRVATTAVSPSTISTATAVNNGRIGTSTASRGVSSVGNSNNSRISRPKTNDYGEPLYCYCNQVAYGEMVGCDGADCELEWFHLPCIGLETLPKGKWYCDDCKKKL
notes: Pho23, subunit of the S. cerevisiae Rpd3L complex; endogenous subunit
B7: Sds3 (natural protein, S. cerevisiae, UniProt P40505 1-327, looked up)
chain: MAIQKVSNKDLSRKDKRRFNIESKVNKIYQNFYSERDNQYKDRLTALQTDLTSLHQGDNGQYARQVRDLEEERDLELVRLRLFEEYRVSRSGIEFQEDIEKAKAEHEKLIKLCKERLYSSIEQKIKKLQEERLLMDVANVHSYAMNYSRPQYQKNTRSHTVSGWDSSSNEYGRDTANESATDTGAGNDRRTLRRRNASKDTRGNNNNQDESDFQTGNGSGSNGHGSRQGSQFPHFNNLTYKSGMNSDSDFLQGINEGTDLYAFLFGEKNPKDNANGNEKKKNRGAQRYSTKTAPPLQSLKPDEVTEDISLIRELTGQPPAPFRLRSD
notes: Sds3, subunit of the S. cerevisiae Rpd3L complex; endogenous subunit
B8: Rpd3 (enzyme, S. cerevisiae, UniProt P32561 1-433, looked up)
chain: MVYEATPFDPITVKPSDKRRVAYFYDADVGNYAYGAGHPMKPHRIRMAHSLIMNYGLYKKMEIYRAKPATKQEMCQFHTDEYIDFLSRVTPDNLEMFKRESVKFNVGDDCPVFDGLYEYCSISGGGSMEGAARLNRGKCDVAVNYAGGLHHAKKSEASGFCYLNDIVLGIIELLRYHPRVLYIDIDVHHGDGVEEAFYTTDRVMTCSFHKYGEFFPGTGELRDIGVGAGKNYAVNVPLRDGIDDATYRSVFEPVIKKIMEWYQPSAVVLQCGGDSLSGDRLGCFNLSMEGHANCVNYVKSFGIPMMVVGGGGYTMRNVARTWCFETGLLNNVVLDKDLPYNEYYEYYGPDYKLSVRPSNMFNVNTPEYLDKVMTNIFANLENTKYAPSVQLNHTPRDAEDLGDVEEDSAEAKDTKGGSQYARDLHVEHDNEFY
notes: Rpd3, histone deacetylase, the catalytic subunit of the S. cerevisiae Rpd3L complex; endogenous subunit; Present in two copies in the Rpd3L complex, one in each lobe; also called Rpd3-I; Rpd3-II

The target in test [1] is T1, Sin3 (S. cerevisiae, UniProt P22579 1-1536).
T1 construct: Sin3, principal scaffolding subunit of the S. cerevisiae Rpd3L complex; endogenous subunit; Present in two copies in the Rpd3L complex, one in each lobe; also called Sin3-I; Sin3-II
Put plainly: cryo-EM structure; Rpd3L complex purified by TAP, crosslinked on ice with 1 mM BS3 for 15 min, graphene oxide coated grid; map at 3.5 Å, lobes I and II focus refined to 3.4 Å. The settings on record: both partners purified.

Test [2] deals with B8. The description is as above. The following applies: both partners purified.
Test [3] has as its target T1, Sin3. Put plainly: affinity purification with mass spectrometry; tandem affinity purification from S. cerevisiae lysate by the TAP tag on Rxt2 (IgG resin, TEV protease, calmodulin resin; washes with 500 to 750 mM KCl); the purified complex analysed by mass spectrometry. The following applies: partners not purified.
Test [4] deals with B8. Described as above. The following applies: partners not purified.
In test [5] the target is B7. Nature of the test: cryo-EM structure; Rpd3L complex purified by TAP, crosslinked on ice with 1 mM BS3 for 15 min, graphene oxide coated grid; map at 3.5 Å, lobes I and II focus refined to 3.4 Å. The following applies: both partners purified.
The target in test [6] is T2, co-expressed complex of MBP-tagged human BRMS1 (residues 51-179) and His6-tagged mouse SDS3 (residues 43-234) (human | mouse, UniProt Q9HCU9 51-179; Q8BR65 43-234).
T2 construct: BRMS1, human, residues 51-179; SDS3, mouse, residues 43-234; The two chains were co-expressed and then combined with the separately expressed ARID4A R2 domain; also called SDS3, BRMS1; source: E. coli, co-expressed, purified (Ni-NTA, SEC)
T2 sequence (looked up) 1: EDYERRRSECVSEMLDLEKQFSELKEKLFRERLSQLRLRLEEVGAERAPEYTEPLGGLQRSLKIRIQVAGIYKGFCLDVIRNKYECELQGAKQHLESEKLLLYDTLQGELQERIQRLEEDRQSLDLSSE
T2 sequence (looked up) 2: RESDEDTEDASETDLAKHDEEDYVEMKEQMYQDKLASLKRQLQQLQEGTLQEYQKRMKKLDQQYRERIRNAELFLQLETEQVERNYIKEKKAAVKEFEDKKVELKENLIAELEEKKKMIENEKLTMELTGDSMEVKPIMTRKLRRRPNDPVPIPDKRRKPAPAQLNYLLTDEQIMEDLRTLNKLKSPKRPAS
Nature of the test: SEC; Ni-NTA purified proteins on a Superdex 75 GL column in 25 mM MOPS pH 7.5, 150 mM NaCl, 1 mM TCEP; co-elution. The following applies: both partners purified.

Test [7] has as its target B1. Put plainly: cryo-EM structure; Rpd3L complex purified by TAP, crosslinked on ice with 1 mM BS3 for 15 min, graphene oxide coated grid; map at 3.5 Å, lobes I and II focus refined to 3.4 Å. The following applies: both partners purified.

T1 sequence (P22579 whole entry): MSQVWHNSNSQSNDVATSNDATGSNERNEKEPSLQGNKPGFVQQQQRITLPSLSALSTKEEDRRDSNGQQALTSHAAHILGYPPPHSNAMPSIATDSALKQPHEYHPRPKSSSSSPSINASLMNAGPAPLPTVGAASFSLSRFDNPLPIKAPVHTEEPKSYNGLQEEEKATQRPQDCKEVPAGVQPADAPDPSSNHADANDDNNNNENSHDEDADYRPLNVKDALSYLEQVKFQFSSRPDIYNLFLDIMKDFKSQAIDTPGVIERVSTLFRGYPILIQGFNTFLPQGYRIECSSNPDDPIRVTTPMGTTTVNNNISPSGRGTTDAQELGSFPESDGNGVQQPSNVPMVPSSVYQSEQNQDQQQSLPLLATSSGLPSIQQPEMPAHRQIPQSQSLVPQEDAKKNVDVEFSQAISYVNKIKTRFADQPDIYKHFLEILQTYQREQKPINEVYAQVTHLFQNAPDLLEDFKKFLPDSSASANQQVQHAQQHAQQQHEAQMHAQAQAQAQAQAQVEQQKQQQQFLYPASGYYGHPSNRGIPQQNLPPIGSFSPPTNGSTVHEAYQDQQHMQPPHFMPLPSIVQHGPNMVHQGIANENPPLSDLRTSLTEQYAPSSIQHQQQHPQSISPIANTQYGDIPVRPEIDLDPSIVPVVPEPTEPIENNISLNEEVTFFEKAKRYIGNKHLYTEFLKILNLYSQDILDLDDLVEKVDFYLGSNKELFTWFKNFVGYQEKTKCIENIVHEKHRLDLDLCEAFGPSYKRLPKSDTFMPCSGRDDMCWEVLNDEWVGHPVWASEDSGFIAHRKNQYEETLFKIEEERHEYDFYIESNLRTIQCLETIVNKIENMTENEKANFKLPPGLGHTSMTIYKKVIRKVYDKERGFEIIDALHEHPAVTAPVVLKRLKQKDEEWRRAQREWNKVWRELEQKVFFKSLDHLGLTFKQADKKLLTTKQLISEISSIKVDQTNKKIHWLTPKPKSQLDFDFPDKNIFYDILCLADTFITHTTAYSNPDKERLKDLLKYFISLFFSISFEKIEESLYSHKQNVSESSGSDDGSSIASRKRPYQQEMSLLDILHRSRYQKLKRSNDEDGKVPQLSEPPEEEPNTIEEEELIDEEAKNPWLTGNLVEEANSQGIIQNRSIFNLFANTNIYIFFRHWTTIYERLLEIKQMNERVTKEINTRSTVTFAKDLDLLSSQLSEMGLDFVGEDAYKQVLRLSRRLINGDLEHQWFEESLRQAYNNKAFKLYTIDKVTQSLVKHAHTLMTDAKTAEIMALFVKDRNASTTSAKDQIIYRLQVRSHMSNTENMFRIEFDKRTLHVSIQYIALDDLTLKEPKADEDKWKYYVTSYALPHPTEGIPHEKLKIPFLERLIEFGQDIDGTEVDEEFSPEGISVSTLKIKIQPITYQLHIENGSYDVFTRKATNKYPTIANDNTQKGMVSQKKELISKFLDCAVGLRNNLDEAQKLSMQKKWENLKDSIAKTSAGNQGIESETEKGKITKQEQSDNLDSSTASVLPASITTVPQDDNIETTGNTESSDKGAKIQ

With B1, the binding result in test [1] and in test [2] was “binds” throughout.

B2: the binding result in test [3] and in test [4] was “binds” throughout.

Consider B3, for which the binding result in test [5] and in test [1] was “binds” throughout.

Consider B4, for which the binding result in test [6] is recorded as “binds”.

As for B5, the binding result in test [1] is “binds”.

Take B6: the binding result in test [2] and in test [7] was “binds” throughout.

In the case of B7, in test [1], the binding result is listed as “binds”.

Regarding B8, the binding result in test [1] is recorded as “binds”.
